Consider 5 molecules from US20220242939A1 (BIOARCTIC, published 2022).

The target of assay [1] is T1, recombinant full-length ApoE4 (aa 1-299; SEQ ID NO:45; Abcam cat. no. ab50243) (human, UniProt P02649 19-317).
T1 construct: Bought protein; also called recombinant ApoE4 full-length protein
The experiment in a line: direct ELISA, target coated at 1 ug/ml, supernatant in 3-fold dilutions from 1000 ng/ml, OD 450 nm. On the procedure: (§1) Selectivity evaluation by direct ELISA: The direct ELISA described below was used to evaluate the binding selectivity of generated monoclonal anti-ApoE antibodies with affinity for the N-terminal neo-epitope of C-terminal ApoE fragments starting at amino acid G200.
(§2) The screening was performed according to standard ELISA protocols. Briefly, 1 μg/ml solutions of N-terminal neo-epitope peptide (SEQ ID NO:50) conjugated to BSA, the recombinant C-terminal ApoE fragment G200-HIS (SEQ ID NO:48) and recombinant full-length ApoE4 (SEQ ID NO:45; Abcam; cat. no. ab50243) were prepared by dilution in PBS. 50 μl/well were added to an ELISA half-area 96 well microtiter plate. Then, the plate was sealed with adhesive sealer and incubated over night at 4° C. The plates were blocked with 150 μl/well of protein-free blocking solution (Pierce) for 1 h at room temperature with shake (600-900 rpm). The plates were washed four times with washing buffer containing 0.28 mM NaH₂PO₄, 2.5 mM Na₂HPO₄, 150 mM NaCl, 0.1% TWEEN®-20 and 0.0075% Kathon CG. Antibodies of interest were serially diluted 3-fold with a starting dilution at 1 μg/ml (mixed 1:1 with dilution buffer: PBS with 0.1% BSA and 0.05% TWEEN®-20) and incubated for 2 h at room temperature. The plates were washed four times as before. […] After another wash (as above), 50 μl/well of K-Blue® aqueous substrate (Neogen) were added, and the reaction was stopped after 5-15 min with 50 μl/well of 0.5 M […]. The optical density at 450 nm was read using an ELISA reader (Tecan). The optical density was plotted against the antibody concentration to generate concentration-response curves (FIG. 14).
In general terms: An ELISA detects its analyte on a solid surface through an enzyme-linked reagent.

The target of assay [2] is T2, G200 N-terminal neo-epitope peptide GQPLQE-Acp-C (SEQ ID NO:50) conjugated to BSA (human, not fully specified (residue 8); printed as GQPLQE-Acp-C; also: C-terminal Cys conjugated to BSA carrier).
T2 construct: also called G200-BSA peptide; G200-peptide
T2 peptide: GQPLQE[Ahx]C
The description is as above. On the procedure: as §1, §2

In assay [3] the target is T3, recombinant C-terminal ApoE fragment G200-HIS (ApoE-G200-H299-10xHIS) (human, UniProt P02649 218-317).
T3 construct: also called G200-HIS fragment
Described as above. As to the method:
as §1, §2

Assay [4] deals with T4, full-length ApoE in human brain extract from Alzheimer's disease patients (human, UniProt P02649 19-317).
T4 construct: mature; Endogenous protein on Western blot or in solution (IP); also called ApoE full-length protein
The experiment in a line: Western blot of AD brain RIPA 2% SDS extract; hybridoma supernatant as primary antibody. From the text: Selectivity evaluation and human target binding in Alzheimer's disease brain extracts by Western blot analysis: The Western blot analysis described below was used to evaluate selective binding of monoclonal antibodies with affinity for the N-terminal neo-epitope of ApoE fragments […], starting at G200, without binding to ApoE full-length protein, in human brain extracts from an Alzheimer's disease patient. Fresh frozen brain tissue from the Alzheimer's disease patient was homogenized in RIPA 2% SDS extraction buffer, followed by centrifugation at 16000×g for 1 h. The subsequent supernatant was subjected to standard protein concentration determination.
RIPA 2% SDS brain extract containing 80 μg total protein was mixed with 2×Laemmli sample buffer, boiled for 5 min at 95° C. and loaded onto SDS-PAGE gels (Bolt™ 12% Bis-Tris Plus 10 well, Thermo Fisher, cat. no. NW00120BOX). Gels were run for 30-40 min at 180 V, after which proteins were transferred from the gels to nitrocellulose membranes using the Trans-Blot® Turbo™ system (Bio-Rad). Membranes were blocked in Odyssey® blocking buffer for 1 h and incubated over night at room temperature with hybridoma supernatant diluted 1:1 in Odyssey® blocking buffer with 0.1% TWEEN®-20. Membranes were washed and incubated for 1 h at room temperature with the detection antibody anti-mouse-800CW (LI-COR, cat. no. 925-32210) diluted 1:25000 in Odyssey® blocking buffer with 0.1% TWEEN®-20. Membranes were washed and images acquired using Odyssey® FC (LI-COR).
In general terms: Immunoblotting shows a protein as a band on a membrane.

The target of assay [5] is T4, full-length ApoE in human brain extract …. The experiment in a line: Western blot of AD brain RIPA 2% SDS extract; monoclonal antibody at 2 ug/ml as primary antibody.
For assay [6], the target named is T5, L198 N-terminal neo-epitope peptide LAGQPLQE-Acp-C (SEQ ID NO:54) conjugated to BSA (human, not fully specified (residue 10); printed as LAGQPLQE-Acp-C; also: C-terminal Cys conjugated to BSA carrier).
T5 construct: BSA carrier
T5 peptide: LAGQPLQE[Ahx]C
The experiment in a line: direct ELISA after limiting dilution.

The target in assay [7] is T6, recombinant C-terminal ApoE fragment L198-HIS (ApoE-L198-H299-10xHIS) (human, UniProt P02649 216-317).
T6 construct: also called L198-HIS fragment
The experiment in a line: direct ELISA, L198-HIS coated at 0.1 µM. As to the method:
(§3) Selectivity evaluation of purified monoclonal antibodies by direct ELISA: The direct ELISA described below was used to evaluate the binding selectivity of the purified monoclonal antibodies produced in Example 14.
(§4) The screening was performed according to standard ELISA protocols. Briefly, 1 μg/ml solutions of BSA-conjugated neo-epitope peptides and negative control peptide, and 0.1 μM recombinant C-terminal ApoE fragment and full-length ApoE (Abcam, cat. no. ab50243) were prepared by dilution in PBS. 50 μl/well were added to an ELISA half-area 96 well microtiter plate, and the plate was sealed with adhesive sealer and incubated over night at 4° C. After discarding the solution, the plates were blocked with 150 μl/well of protein-free blocking solution (Pierce) for 1 h at room temperature with shake (600-900 rpm). The plates were washed four times with washing buffer containing 0.28 mM NaH₂PO₄, 2.5 mM Na₂HPO₄, 150 mM NaCl, 0.1% TWEEN®-20 and 0.0075% Kathon CG. Purified monoclonal antibodies of interest were 3-fold serially diluted with a starting dilution at 3 μg/ml (mixed 1:2 with dilution buffer (PBS with 0.1% BSA and 0.05% TWEEN®-20)). An anti-ApoE C-terminal antibody was used as a reference antibody (ApoE E-8 mouse monoclonal, Santa Cruz Biotechnology, cat. no. sc-393302). 50 μl/well were added into the ELISA plates and incubated for 2 h at room temperature with shake (600-900 rpm). The plates were washed four times as described previously. […] After another wash (as described previously), 50 μl/well of K-Blue® aqueous substrate (Neogen) were added, and the reaction was stopped after 5-15 min with 50 μl/well of 0.5 M […]. The optical density at 450 nm was read using an ELISA reader (Tecan).

Assay [8] deals with T1, recombinant full-length ApoE4 (aa …). Kind of assay: direct ELISA; proteins coated at 0.1 uM, BSA peptides at 1 ug/ml; antibody in 3-fold dilutions from 3000 ng/ml; blank reduced OD 450 nm. On the procedure: as §3, §4
The target of assay [9] is T2, G200 N-terminal neo-epitope peptide …. Described as above. As to the method: as §3, §4
The target in assay [10] is T7, L198 N-terminal neo-epitope peptide LAGQPL-Acp-C (SEQ ID NO:52) conjugated to BSA (human, not fully specified (residue 8); printed as LAGQPL-Acp-C; also: C-terminal Cys conjugated to BSA carrier).
T7 construct: BSA carrier; also called L198-BSA peptide
T7 peptide: LAGQPL[Ahx]C
Kind of assay: direct ELISA, L198-BSA peptide coated at 1 µg/ml. On the procedure: as §3, §4

Non-standard residues stand in square brackets, D forms with d. No end group written: not given here. Ahx = NCCCCCC(=O)O

T1 sequence (P02649 19-317 C130R limits assumed): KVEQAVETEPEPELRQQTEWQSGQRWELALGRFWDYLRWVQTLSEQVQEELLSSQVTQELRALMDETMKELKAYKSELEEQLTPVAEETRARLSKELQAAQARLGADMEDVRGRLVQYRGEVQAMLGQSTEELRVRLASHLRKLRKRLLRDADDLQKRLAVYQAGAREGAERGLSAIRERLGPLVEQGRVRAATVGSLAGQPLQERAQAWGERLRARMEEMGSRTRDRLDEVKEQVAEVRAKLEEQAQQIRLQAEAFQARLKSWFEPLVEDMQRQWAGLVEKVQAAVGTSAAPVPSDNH
T4 sequence (P02649 19-317): as the sequence (P02649 19-317 C130R limits assumed) above, with R112C counted along it
T6 sequence (P02649 other isoform, or with tags, fused parts or gaps limits assumed): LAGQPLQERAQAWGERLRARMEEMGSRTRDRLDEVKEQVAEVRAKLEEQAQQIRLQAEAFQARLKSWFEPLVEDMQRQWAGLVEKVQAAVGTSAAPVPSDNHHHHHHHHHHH
T3 sequence (P02649 other isoform, or with tags, fused parts or gaps limits assumed): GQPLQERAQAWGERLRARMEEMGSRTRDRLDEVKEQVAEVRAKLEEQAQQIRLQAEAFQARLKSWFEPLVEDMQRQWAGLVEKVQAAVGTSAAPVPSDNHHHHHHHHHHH

B1: 4E6, hybridoma monoclonal antibody (unpurified supernatant) (antibody, V domains shown)
VH: EVQLVESGGDLVKPGGSLKLSCAASGFTFSSYAMSWVRQSPEKRLEWVAEISGSGSRDHYTDSVTGRFTVSRDNAKNTLYLEMSSLRSEDTAIYYCARQLTGTDYYGTDYWGQGTSVTVSS
VL: DVLMTQIPLSLPVSLGDQASISCRSSQSIVYSNGNTYLEWYLQRPGQSPKLLIYKVSNRFSGVPDRFSGSGSGTDFTLKISRVEAEDLGVYYCFQGSHLPYTFGGGTKLEIK
Consider B1, for which the values for the binding result in [1] and in [4] were “no binding (tested: 1000 ng/ml)” and “no binding (tested: supernatant diluted 1:1 (text))”, respectively. Besides, the “EC50 (read off the curve)” value in assay [2] and in assay [3] was around 10 ng/mL throughout.

B2: 7B10, hybridoma monoclonal antibody (unpurified supernatant) (antibody, mouse IgG1, V domains shown)
VH: AVQLVESGGGLVKPGRSLKLSCAASGFTFSSYAMSWVRQFPDKRLDWVAEISSGGGSTNYLDTVTGRFTISRDNAKNTLYLEMNSLRSEDTAMYYCARQLVGTDYYGTDYWGQGTSVTVSS
VL: DVLMTQTPLSLPVSLGDQASISCRSSQNIVYSNGNTYLEWYLQKPGQSPKLLIYKVSNRFSGVPDRFSGSGSGTDFTLKISRVEAEDLGVYYCFQGSHVPYTFGGGTKLEIK
notes: also called 7610
For B2, the binding result is recorded as “no binding (tested: 1000 ng/ml)” in assay [1] and “no binding (tested: supernatant diluted 1:1 (text))” in assay [4]. In addition, the EC50 (read off the curve) (as a rule, the midpoint of the concentration-response curve) in assay [2] was around 20 ng/mL; in assay [3], around 8 ng/mL.

B3: 15F8, monoclonal anti-L198 antibody (antibody, IgG2c, V domains shown)
VH: EVKLEESGGGLVHPGGSMKLSCVGSGFTFSNYWMNWVRQSPEKGLEWVAQIKLRSDNYATHYAESVKGKFTISRDDAKSSVYLQMDNLRAEDTGIYYCSHHYLDSGGYFDVWGTGTSVTVSS
VL: DIVMTQSQKFMSTSVGDRVSVTCKASQNVGINVAWYQDKPGQSPKGLILSASYRYSGVPDRFTGSGSGTDFTLTISNVQSEDLAEYFCQQYNSYPYTFGGGTKLEIK
For B3, the binding result in assay [5] was “no binding (tested: 2 ug/ml (text))”; in assay [6], “binds”; in assay [8], “no binding (tested: 3000 ng/ml)”; in assay [9] it was “no binding (tested: 3000 ng/ml)”. The concentration giving a half-maximal response (EC50) (in general, the concentration at which the effect is half-maximal) turned out to be 15 ng/mL in assay [7] and 24.7 ng/mL in [10].

B4: 12B1, monoclonal anti-L198 antibody (antibody, IgG2c, V domains shown)
VH: EVKLEESGGGLVQPGGSMKLSCVASGITFSKYWMNWVRQCPEKGLEWVAQIRLRSDNYATHYAESVKGRFTISRDDSKSSVYLQMNTLRAEDTGIYYCTHHYYGSSGYVDVWGTGTTVTVSS
VL: DIVMTQSQKFMSTSVGDRVSVTCKASQNVGTNVAWYQQKPGQCPKGMILSASQRYSGVPDRFTGSGFGTEFTLTISNVQSEDLAEYFCQQYNSYPYTFGGGTKLERK
B4: the EC50 amounted to 8.7 ng/mL in assay [7] and 15.2 ng/mL in assay [10].

B5: 15H11, monoclonal anti-L198 antibody (antibody, IgG1, V domains shown)
VH: EVKLEESGGGLVQPGGAMKLSCVASGITFSNYWMNWVRQCPEKGLEWVAQIRLKSDNYATHYAESVKGRFTISRDDSKSSVYLQMNTLRAEDTGIYYCTHHYYGSSGYVDVWGTGTTVTVSS
VL: DIVMTQSQKFMSTSVGDRVSVTCKASQNVGNNVAWYQKKPGQCPKGMILSASQRYSGVPDRFTGSGFGTEFTLIISNVQSEDLAEYFCHQYNSYPYTFGGGTKLERK
Consider B5, for which the EC50 is 3.6 ng/mL in assay [7] and 3.2 ng/mL in assay [10].
